According to PMC7351741, “Structural basis of seamless excision and specific targeting by piggyBac transposase”:
Each block holds one molecule with its values, some of them ahead of it.

Experiments:
[1] = biological target: piggyBac transposase (PB), full-length, Trichoplusia ni (Trichoplusia ni); assay: SEC-MALS; purified PB at 4 and 2 mg/ml, Superdex 200 Increase 10/300, 20 mM HEPES pH 7.5, 100 mM NaCl, 1 mM TCEP; no DNA
[2] = biological target: T1, piggyBac transposase (PB) (Trichoplusia ni, UniProt Q283G1 1-594); assay: cryo-EM; 5 mM Ca2+; Zn2+ in CRD; SNHP: 50 mM Tris-Cl pH 8.0, 100 mM NaCl, 5 mM CaCl2, 1 mM TCEP, mixed 1 h at 25 C; STC: 50 mM Tris-Cl pH 8.0, 500 mM NaCl dialyzed to 200 mM NaCl, 10 mM CaCl2; conditions: protein: recombinant; tags: N-terminal MBP tag removed by TEV; chain copies: 2; hairpin, 35 bp stem, TTAA loop; 2 copies per PB dimer
T1 sequence (Q283G1 entry or part of it): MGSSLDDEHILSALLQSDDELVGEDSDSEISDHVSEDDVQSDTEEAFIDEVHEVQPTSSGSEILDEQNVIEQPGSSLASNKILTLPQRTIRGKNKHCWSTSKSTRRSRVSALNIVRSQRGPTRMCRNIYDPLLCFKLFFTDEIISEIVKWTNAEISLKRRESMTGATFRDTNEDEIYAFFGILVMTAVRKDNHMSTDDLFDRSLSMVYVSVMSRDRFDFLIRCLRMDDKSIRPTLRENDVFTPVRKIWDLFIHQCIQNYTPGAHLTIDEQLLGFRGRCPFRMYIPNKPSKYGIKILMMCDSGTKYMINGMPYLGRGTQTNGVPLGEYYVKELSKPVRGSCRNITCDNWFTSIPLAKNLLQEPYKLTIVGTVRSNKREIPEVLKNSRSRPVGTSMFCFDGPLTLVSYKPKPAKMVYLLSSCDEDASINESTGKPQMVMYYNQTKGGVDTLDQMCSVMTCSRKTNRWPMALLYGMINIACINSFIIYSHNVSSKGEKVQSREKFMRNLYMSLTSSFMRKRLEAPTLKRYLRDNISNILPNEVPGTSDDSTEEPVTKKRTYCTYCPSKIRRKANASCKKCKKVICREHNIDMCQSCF

[3] = biological target: T1, piggyBac transposase (PB); assay: cryo-EM; 10 mM Ca2+; Zn2+ in CRD; SNHP: 50 mM Tris-Cl pH 8.0, 100 mM NaCl, 5 mM CaCl2, 1 mM TCEP, mixed 1 h at 25 C; STC: 50 mM Tris-Cl pH 8.0, 500 mM NaCl dialyzed to 200 mM NaCl, 10 mM CaCl2; conditions: protein: recombinant; tags: N-terminal MBP tag removed by TEV; chain copies: 2; four annealed oligos, 2 copies of each; S4 pairs with S5+S6 (break between S5 and S6), 5' CCGG flap on S4; S7 pairs with 3' 11 nt of S6; central target TTAA unpaired in the complex

- stoichiometry N [1]: 2
Molecule: piggyBac transposase (PB), full-length, Trichoplusia ni (enzyme)

B1: LE35hrpn (SNHP LE hairpin DNA) (structured_DNA)
DNA: CATGCGTCAATTTTACGCAGACTATCTTTCTAGGGTTAACCCTAGAAAGATAGTCTGCGTAAAATTGACGCATG
- binding result [2]: binds

B2: LE STC DNA (mixed)
DNA 1: CCGGCCCTAGAAAGATAGTCTGCGTAAAATTGACGCATGCA
DNA 2: TGCATGCGTCAATTTTACGC
DNA 3: AGACTATCTTTCTAGGGTTAAGACTGTGCCGC
DNA 4: GCGGCACAGTC
- binding result [3]: binds
